Data on two substances can be found in patent US11369662B2 (The Medical College of Wisconsin, Inc., priority 2014, dated 2022).

“Also recorded” adds a separate entry of the source.

Assay [1] has as its target T1, CXCR4 (Homo sapiens, UniProt P61073).
T1 construct: purchased Millipore
The assay can be described thus: β-arrestin-2 recruitment BRET assay in HEK293 cells. The assay is classed as cell-based. The note with it: concentrations increased to 10 and 100 μM. The protocol: β-arrestin-2 recruitment. β-arrestin-2 recruitment was measured using an intermolecular BRET assay performed as described previously. HEK293E cells were cotransfected with […] of CXCR4-eYFP construct with […] of β-arrestin-2-RLuc (a gift from Michel Bouvier, University of Montreal, Montreal, QC, Canada). For [acceptor]/[donor]titrations […] of β-arrestin-2-RLuc were cotransfected with increasing amounts of the CXCR4-eYFP construct. All transfections were completed to 2 mg/well with empty vector. […] Cells were washed once with PBS, and the RLuc substrate coelenterazine-II (NanoLight Technology) was added at a final concentration of […] to BRET buffer (PBS, 0.5 mM MgCl2, 0.1% w/v glucose). β-arrestin recruitment was measured 30 min after ligand addition. […]
β-arrestin-2 recruitment. β-arrestin-2 recruitment was measured using an intermolecular BRET assay performed as described previously. […] The medium of the cells was then changed to BRET buffer (PBS, 0.5 mM MgC2, 0.1% (w/v) BSA). β-arrestin-2 recruitment was measured 15 min after ligand addition, and 10 min after the addition of the RLuc3 substrate coelenterazine400a (NanoLight Technology) at a final concentration of […]. […]
A general note: Recruitment of arrestin is a read-out of receptor activation apart from second messengers.

In assay [2] the target is T1, CXCR4. Kind of assay: CXCR4 internalization assay in HeLa cells. Type of assay: cell-based. Conditions: 80 ng/ml, 20 min, FACS surface expression. The protocol: CXCR4 internalization assay. HeLa cells grown on 6-cm dishes were washed twice with PBS and detached from the surface of the plate by incubating with 350 μl Cellstripper cell dissociation solution (Mediatech, Va.) for 10 min at 37° C. Cells were collected in 4 ml PBS containing 0.1% BSA (Media Tech, Va.) by centrifugation. Cell pellets were re-suspended in 1.5 ml PBS-0.1% BSA and 5×10^5 cells were transferred to a fresh 5 ml polystyrene round bottom tube (BD falcon) and washed once with PBS+0.1% BSA and re-suspended in 250 μl PBS-0.1% BSA. […] Following treatment, 4 mL cold PBS was added to each tube, cells were collected by centrifugation and then fixed by re-suspending the pellet in 500 μl 4% paraformaldehyde (made in PBS) and incubating for 15 min at 37° C. Cells were collected by centrifugation and washed once with 4 mL PBS and then twice with PBS-0.1% BSA. […] CXCR4 surface expression was analyzed by flow cytometry (FACS-CANTO; Becton Dickinson) and analysis was performed using FlowJo v.9.3 software.
CXCR4 internalization assay. […] CXCR4 surface expression was analyzed by flow cytometry (FACS-CANTO; Becton Dickinson) and analysis was performed using FlowJo v.9.3 software.

Assay [3] deals with T1, CXCR4. The assay can be described thus: Radioligand displacement of 125I-CXCL12 from CXCR4 membrane preparations. The note with it: relative to CXCL12WT. Type of assay: binding. The protocol: Radioligand displacement. Commercial membrane preparations of cells stably expressing CXCR4 or CXCR7 were purchased (Millipore). Five micrograms of protein per point was incubated for 90 min on ice in binding buffer with 0.03 nM of […] as a tracer and increasing concentrations of competitor in a final 40 μL volume. Bound radioactivity was separated from free ligand by filtration, and receptor-bound radioactivity was quantified by gamma-radiation counting (Perkin-ECXCL121er Life and Analytical Sciences). Isolated membrane binding experiments were carried out in duplicate.

T1 sequence (P61073 whole entry): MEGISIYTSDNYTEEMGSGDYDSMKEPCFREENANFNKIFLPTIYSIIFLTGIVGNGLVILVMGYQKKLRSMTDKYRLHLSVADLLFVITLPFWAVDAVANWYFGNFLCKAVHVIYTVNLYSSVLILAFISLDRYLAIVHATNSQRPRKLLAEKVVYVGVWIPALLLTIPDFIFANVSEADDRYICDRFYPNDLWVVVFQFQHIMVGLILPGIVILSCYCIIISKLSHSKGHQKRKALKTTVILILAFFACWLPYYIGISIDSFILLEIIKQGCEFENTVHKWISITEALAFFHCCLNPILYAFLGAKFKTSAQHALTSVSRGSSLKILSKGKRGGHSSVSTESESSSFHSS

Take “CXCL12WT: wild type CXCL12 (stromal cell-derived factor-1/SDF-1), SEQ ID NO:1”: the “shape of β-arrestin-2 recruitment dose response” value in assay [1] is given as “bimodal recruitment; also recorded: bimodal stimulation”. Consider “CXCL122: constitutively dimeric variant of CXCL12 containing L36C/A65C mutations”, for which the CXCR4 internalization entry in assay [2] is “nominal internalization”. For the same substance, the “recognition of the full-length receptor in comparison to CXCL12WT” value in assay [3] was “six-times weaker”.
